Data: the supplement of paper PMC12636428

tested on: Saccharomyces cerevisiae; assay: transcriptional activation domain activity (GFP:mCherry ratio, weighted mean of sorted bins, harmonized to initial dataset scale) (arbitrary fluorescence ratio units); higher = stronger transcriptional activation; details: beta-estradiol 1 µM; induction time 4 h
Method in brief: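 Sorting into 8 bins by GFP:mCherry ratio followed a 4-hour hold at 30 °C after cultures were diluted 1:5 into SC with 1 uM beta-estradiol. The yeast diploids carried a GFP reporter and had barcoded protein tiles, fused to an estradiol-inducible synthetic transcription factor, integrated at URA3. Barcodes were then sequenced, and tiles with under 50 reads were removed. Activation activity is the read-weighted mean of bin median fluorescence, averaged across barcodes and linearly mapped onto the initial dataset scale.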

Going from “RHLAEAGLGIAAAGAAKELYDHRRRSRSRSSDSSRSRSRSQSHTGRHVAAAAL” to “RHLGSLAYLGNTAVGEFGWGYKMIGGLYAQYLWRSVYWSKQVSLRTRINLSID”, the “transcriptional activation domain activity” value rises from 45800 to 54500.

First: RHLPAVNGGKLTSYAIVGEGSMSPHFVWTAHHAVYVVDGWSLALLFRKVELRY
Second: RHLSIRLCEIGLIIFAHGLHVHNAYSHLYICLHVVTSRYLYGSHCMVCQLLFY
The “transcriptional activation domain activity” value of the first is lower: 48200 for the first, 75800 for the second.

Compared with “RHRRHRRSRSRDREGGRDRGRDGRRDERREERKVERRNEGRDEGRVEGRGRDA”, “RHYCYIIVLKSLMYESPRIIGFAWKPEEGHFFNKVMYRTFVGLLMLLQVLLVG” is higher in “transcriptional activation domain activity” value: 40000 for the first, 55900 for the second.

Compared with “RIAKRRRKDGEPMLYAPDELKEGRWAPKELIKTMARLRRSIQIVLCLSLLSGF”, “RIESHLSEREYKLQTFAEFLRVPDNGSLDIESLDSSLIENTLNSHDVTNQALD” is lower in “transcriptional activation domain activity” value: 77000 for the first, 26700 for the second.

Going from “RIFGLQSPQLVYVESMARVRKLSLSGKILRLLVDRFFVQWEALADGKTGSRWW” to “RIILINPLICGATLMLVFAAIGGGWRNVAIEIFVDHGYIRLLFILCTIPQIWL”, the “transcriptional activation domain activity” value falls from 61100 to 56800.

Compared with “RILATQFFYVAAFTFLVFHSAFRAARITLPLYQHPLRIAIPVTLTQMGLHATA”, “RIMLQNAILPWFGKHDLRGKVFGCQIIELFHIFGMSFLNWIWSSGLVLATFPP” is lower in “transcriptional activation domain activity” value: 64600 for the first, 56600 for the second.

Going from “RIRDFMQFTLAATKTHYKLLPDILFKADPELCRRVSDANPSCALAALLTLYAH” to “RIRKFTVLGATIVEPFMECVLNGVLGAFGFWVFFGVPRLWFFGWHLCYWLLVD”, the “transcriptional activation domain activity” value rises from 77500 to 86000.

Going from “RISGRVIWSLLICHASWYLNFFIQVGVLSKRLSSPVVLCGVVSFQLLNILLIT” to “RISPGFIKKRRSSQTRQDEDHWQRVRELENQSSLYYLPIHEETPFFIDLIPNG”, the “transcriptional activation domain activity” value rises from 53000 to 76200.

First: RIVGESASTHAVCVSLPRDVYQASDGEEDLMGSVPQVLPALVCSCTRASSIVH
Second: RIVIPIRLVLLVFVTMASYLLFAMIIYACQNEWLYPFLSWDQGPVAVLWYLLL
The “transcriptional activation domain activity” value of the first is higher: 68500 for the first, 42800 for the second.

First: RIVRLSFAYTSFIVLPWQQLSEFRGQAYTVGACLEALRLMPNLLRCAFAAYEL
Second: RIVSSLFFICHGNYYIAFVILSKALDDYVPKIYVLNLNLNHLYLGLLIMCLLL
The “transcriptional activation domain activity” value of the first is higher: 53600 for the first, 35800 for the second.

Going from “RIWLRRLFDIARLLSVGVSNQWSLRMLLDRDAFTPLLIKWLNYYSLRIWTSAV” to “RKADPPKEKKKPAVPAAEGAAAPAKKEKKDKKDKEAAAVSVEATEVKEEAAPA”, the “transcriptional activation domain activity” value falls from 68500 to 13900.

Compared with “RKAEEEEEEEAEAKAEKKKPAHGVPFEGTSKSARARARKRAKKEAEAAAATPA”, “RKAKATAKEGDKEKSDGGEKLKKASKRSDGEDDKAGQRSSGNKKSRAKKRAED” is lower in “transcriptional activation domain activity” value: 17800 for the first, 16400 for the second.

First: RKARQAQGAQGGGGGGAGGPGARGGARGGRVGGERGGRGGGRGGERGRGRGRG
Second: RKDALLKTSFGGTVFAVRQIGGDRFHGMPFVHLMVIVICLHWTWLRAVIFLGR
The “transcriptional activation domain activity” value of the first is lower: 51400 for the first, 52800 for the second.

Going from “RKDKSKDTKERDVSKRQRGSSRNKGTKAKGTQTKQNEDEEDIVKTRKSKAKDK” to “RKDKSRVEDSDSADSDAGHVNGNKAGEGEEGAAKKKRKRRHKKRVPDGEGASV”, the “transcriptional activation domain activity” value rises from 15200 to 29700.

Compared with “RKDRKDRTRKERRDRHDDGRRHRHRRSSRSRSRDRRDRKHDRSRSRDRRKDGD”, “RKEAMDFDAELKRRNTHLYCAIIDLEKEMQLVAYLVCACLKKVTFLHKVCVLE” is higher in “transcriptional activation domain activity” value: 9360 for the first, 67900 for the second.

Going from “RKEGGGHGSSSRRDRDRDRDRSDRHRSSKKSSSSNNHDADGTAAAAADASGVH” to “RKEKGRNANNAKKGQNKRGGAQKEKAKTKVKSGEVSAEPGMKRGKRGRRRAAA”, the “transcriptional activation domain activity” value rises from 18200 to 48200.

Going from “RKERKREKESERRERHHRRSQTHSSDEARERHRDGKTKQSRSSDRDPRKTRAR” to “RKGEGEGSEPPHPAEPRRLRRSHEACARCRSKKIKCDSKHPRCTACATAGTPC”, the “transcriptional activation domain activity” value falls from 30800 to 23800.

First: RKGSVAKEMIDGRVGRREKGGQGDNRGRKRTRRGSGERKRSDKKGRREKRNRK
Second: RKHMMAFYFDDILEKVVGTATMDERGVFIRDNERGILWCLLVFRMLCWLILHD
The “transcriptional activation domain activity” value of the first is lower: 42300 for the first, 58000 for the second.

First: RKIVNEPREYLHAGNVKDNQGARQKKRRVGRGLGSGLGKTSGRGQKGWKARAP
Second: RKKREREAEKAEAKRKEERDARRREREKREEEREREREKEREERRRARERDRE
The “transcriptional activation domain activity” value of the first is higher: 37000 for the first, 33900 for the second.

First: RKKRERRERLKRGKKGGKKGDEDGAGDGEKGKGGKVKARVVIREDAEGLGGEG
Second: RKKRRSTRRSRSREESSRRRGDDRRRNHSRDRSTTSRRRSRKSRSPSRDRSSR
The “transcriptional activation domain activity” value of the first is lower: 30900 for the first, 32300 for the second.

First: RKKSALEEEERKEKENDELEKKGKRKEEKEEKRRRGKGEKKGKEIRKEKEEKE
Second: RKLLIALDMRLQNIRSNWKEHHSLTVVIQLTLRLLSLGLSSEVVAGCLDLLKS
The “transcriptional activation domain activity” value of the first is lower: 25300 for the first, 64700 for the second.

Compared with “RKLRDVHVPEVPLPLGPDGKADRKKSSLIMVHYVLMHSREVILLCLHRSFFAQ”, “RKLRTKIIELSGSVEAACALGVADGIVDLVESGETMRAAGLKAIDTVVDTQAV” is lower in “transcriptional activation domain activity” value: 65300 for the first, 29100 for the second.

Compared with “RKNNKREVKVEAREPHHKGRKNNKREVEAVEEVEARDPHHKGRKNNNREVEVE”, “RKNTSSEEDELEESRNNRNKNHRSRQDGNKEDRSSRSRQSHRQKRERSGSEER” is lower in “transcriptional activation domain activity” value: 28300 for the first, 14100 for the second.

Going from “RKPEAAAEKAAEAPEAAGGEGTRRRASGRGRGRGRNGRGGRSARAGEEKKDET” to “RKPEAAAEKTAEAPEATGGEGTRRRASGRGRGRGRNGRGGRSGRAEGEEKKDE”, the “transcriptional activation domain activity” value rises from 29500 to 31500.

Compared with “RKPEPAGEKAEGAQSGGEGQNGEGRRRGGGRGRGRARGRGGRGGRGGRGQRNA”, “RKPESNEKTEGANGEGHDGTRRRQSTRGRGRAGRGRGGRARGERGEKKEEGAE” is higher in “transcriptional activation domain activity” value: < 6570 for the first, 14100 for the second.

Compared with “RKPETAGEGSGAEGASGGENHRRGSTRGRGRGRGRGGRSSRGGRSRKDGAGAE”, “RKREEEDARVQEAALKEEEDARVREAARKEEEEEAERLKRRREEEDARVQEAA” is lower in “transcriptional activation domain activity” value: 33500 for the first, 22400 for the second.

Compared with “RKRGWSDEDGEGEGAEGGEAQNGKGKGKGRGRRARGKGKGKGKESAEAEKDED”, “RKRKASASPERDEEGKSGPKGRGRTARRGSKAGRGKSGGTQRGGRKGASEREV” is higher in “transcriptional activation domain activity” value: 27200 for the first, 38500 for the second.

Compared with “RKSAATEEKEEKKEAPKAKRAKKAKEPEPEVEAEAEAAAEKVEEVKEKKKPGR”, “RKSELIAKYGLLPRDLRKIDSSVLPHILVRHSAILISLLHLRVLIKADRVLVF” is higher in “transcriptional activation domain activity” value: 24800 for the first, 57200 for the second.

Compared with “RKSTSGKTEKADTEKPEKKKPANEGNTAAGTKGTGERKPAVKAGGGVKGRPSG”, “RKTGGRSKRTTRGEGKKEEGRSPTKERTTKGARRSKEETRAGGRTSQAEERGK” is higher in “transcriptional activation domain activity” value: 17800 for the first, 33900 for the second.

Compared with “RKTKFPILLSGDGYIHFGFLYAVIPNLNIMAMSYVAVINNVRVVAYLCLWMSL”, “RKVGFILYVIMHMRINIVFAAFRLAKFNINPNSVYIKIINCVIKYLLKTMDYF” is lower in “transcriptional activation domain activity” value: 50800 for the first, 44700 for the second.

First: RLAELCLLIDPRLLVKLAGVMARYIESMATYRAHPRQIYNRQCSVFNTSLKLF
Second: RLAGGLRGLTGLEKEELRKRGWGLGWWMMRGAFYENITKAWIHTVTRKLKNKP
The “transcriptional activation domain activity” value of the first is higher: 62200 for the first, 47300 for the second.

First: RLCEFLFFLLFFGGFLVGGLVGLGVWFGWAFVLAFSFFLALHFGVSNHLFVVF
Second: RLCPRLGLVELFFKNSAELSKVLKALGAAAATTLCTVVFPGYSHRLSFLQWYP
The “transcriptional activation domain activity” value of the first is lower: 29000 for the first, 62400 for the second.

Compared with “RLCYERFILCLICLPILYLPLVLILGIFIALSLTYIIFISFDPIISSMWYLAL”, “RLDATAEEEAKRQRACEACRALKVRCDRGSDDSPCKRCEKARRECVITQPSRK” is lower in “transcriptional activation domain activity” value: 68400 for the first, 40300 for the second.

First: RLEASKKRKARVEVDIVLERDCVVEGGEVRGRMEVRVHGSKRSEGLRVGAGKI
Second: RLEKQGWFAYIKEFRIFLPCLWPTGSIRGKLCLVVLILDLVINRFLRVLTPRQ
The “transcriptional activation domain activity” value of the first is lower: 44400 for the first, 59800 for the second.

First: RLETLHKCIVTYLWLSYRFANLVGSRKVATYAKEITENVIEKTLMEFTWTRWA
Second: RLFAELFMFSICLFSRVLSYFSVFQLQLINVLMYFLPLMIICGYWAGLLNVAI
The “transcriptional activation domain activity” value of the first is lower: 52000 for the first, 52500 for the second.

First: RLFALLHLHILAYISFFISSSLAYHLHLFLLLLSYFSLLFCIFVSPRLGLSSC
Second: RLFAYYRSGWQVSNADVVQLPSWLFTLFLCAVCYLCMTIWYTYLTFQIHCVYW
The “transcriptional activation domain activity” value of the first is higher: 66400 for the first, 66300 for the second.

Compared with “RLFGRGQWTLGRVIFFVFFYFNVAPLMLGVSMVCWFMVFWIPMGRVTLILFYH”, “RLFSKQLHPRMFRVCLTLIIIVAIWGLTFICLVIFACNPVEKSWHVTMPGKCI” is lower in “transcriptional activation domain activity” value: 85300 for the first, 27500 for the second.

Compared with “RLGEEKRSKSTEEAPREESEEAESTKKASGKSESAGEEKTKEEGEEGEGKKEG”, “RLGQCVKRYFDSKQVTHLVNAGKYGTGVVSYLFYFMWSYREESRGANFALWCF” is higher in “transcriptional activation domain activity” value: 30800 for the first, 79300 for the second.

Compared with “RLHCHVVCPLSHSLLTQVYLFLFFFLSNLLITSLSLPVHFFPFILCLCCIAHF”, “RLHILVGFVTVAEVTNIVFITRSSWRILIGGVERPDLILIPPATSVGTPILNG” is lower in “transcriptional activation domain activity” value: 58000 for the first, 35000 for the second.

Compared with “RLHTLRMPISWPLLGLARRRLASLRTFAVWIKPRHSSLTAAERLAFTQFLAAH”, “RLILILSLLVCWAAAIIDCVFVIIAGVTGVLQPQSRYLVLLLPMLFTNFLATL” is lower in “transcriptional activation domain activity” value: 79000 for the first, 57300 for the second.

First: RLIYGDYVSYHFLKMLHKVHDQISLAYIHHGLELVMWSCKVLVLLFKQLFESY
Second: RLKLFIMVVFCLGTIHEYALIGMYWSILISCRRSMSLECTTKLPWQMVLGVFM
The “transcriptional activation domain activity” value of the first is higher: 67900 for the first, 49800 for the second.

In the case of “RLLIVFAWMCRLGCWIEMDHEARLVLLKFLATFKANSNNVISYKLDQYYLTGL”, the “transcriptional activation domain activity” value is reported as 80100.
